The text below walks through data of article PMC2770664.

The target of data set [1] is T1, HMO2 (NHP10) (Saccharomyces cerevisiae, UniProt Q03435 1-203).
T1 sequence: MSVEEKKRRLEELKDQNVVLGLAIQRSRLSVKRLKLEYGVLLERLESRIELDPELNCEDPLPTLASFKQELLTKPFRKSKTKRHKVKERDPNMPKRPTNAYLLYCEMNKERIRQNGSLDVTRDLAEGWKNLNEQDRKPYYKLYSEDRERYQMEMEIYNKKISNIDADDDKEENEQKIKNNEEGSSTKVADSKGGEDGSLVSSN
Kind of data set: EMSA. In general terms: Mobility shift assays separate free from complexed probe on a gel.

Data set [2] concerns the target T1, HMO2 (NHP10). The data set is described as follows: EMSA. The source holds these as a separate data set.

Where two headings read alike, the source gives them in different places.

B1: 50 bp duplex (dsDNA)
DNA 1: TTCAATCCCCGTCTGTCCCCCGATCCCCTGCTCGTAGGCGTGCTTGACCG
DNA 2: CGGTCAAGCACGCCTACGAGCAGGGGATCGGGGGACAGACGGGGATTGAA
B1: the binding result in the data set with HMO2 (NHP10) [1] is recorded as “no binding”.

B2: 50 bp duplex with tandem AA and CT loops (dsDNA)
DNA 1: ACAGTGGAGTAGGCTACACCTACTCTTTGTAAGAATTTTGCAAAAAGTAC
DNA 2: GTACTTTTTGCAAAATTCAAACAAAGAGTTCGTGTAGCCTACTCCACTGT
As to B2, the binding result with HMO2 (NHP10) [2] is listed as “binds”.
